Experiment [1] addresses C-terminally truncated HRSV nucleoprotein N1-370 (strain Long), as N-RNA assemblies (Human respiratory syncytial virus (strain Long)) (UniProt P03418). The experiment can be described thus: cryo-EM structure; purified N-RNA assemblies in TEN buffer (50 mM Tris-HCl, 10 mM EDTA, 150 mM NaCl, pH 7.4), plunge-frozen on holey carbon grids; Glacios microscope, K2 detector; assemblies classified and reconstructed separately.

Experiment [2] has as its target Human respiratory syncytial virus nucleoprotein N, full-length wild type (strain Long), as N-RNA assemblies (Human respiratory syncytial virus (strain Long)) (UniProt P03418). The description is as above.

The source of these data is article PMC10504348.

Where “and” joins values, the source holds several entries; their conditions need not be identical. Equal entries are not always repeated.

As to “C-terminally truncated HRSV nucleoprotein N1-370 (strain Long), as N-RNA assemblies (from UniProt P03418 1-370) (domain or fragment)”, the stoichiometry N (usually the number of molecules, sites or subunits per partner or assembly) in experiment [1] was 10.

“Human respiratory syncytial virus nucleoprotein N, full-length wild type (strain Long), as N-RNA assemblies (from UniProt P03418 1-391) (natural protein)”: the stoichiometry N in experiment [2] was 10 and 11.
